Legend:
[1] = molecular target: Mouse laminin (isolated from the EHS-sarcoma, Life Technologies) (mouse) (UniProt P19137); assay: adherence assay; 37°C-grown MC02152 cells on LN-coated wells
[2] = molecular target: Collagen type I (Sigma), immobilized; assay: adherence assay; 46°C-grown MC02152 cells on CI-coated wells
[3] = molecular target: Mouse laminin (isolated from the EHS-sarcoma, Life Technologies) (mouse) (UniProt P19137); assay: adherence assay; MC02152 cells (46°C) on LN-coated wells; no IgG
[4] = molecular target: Collagen type I (Sigma), immobilized; assay: adherence assay; MC02152 cells (46°C) on CI-coated wells; no IgG
[5] = molecular target: Collagen type IV (Sigma); assay: adherence assay; 46°C-grown MC02152 cells on CIV-coated wells
[6] = molecular target: Collagen type I (Sigma), immobilized; assay: adherence assay; 37°C-grown MC02152 cells on CI-coated wells
[7] = molecular target: Mouse laminin (isolated from the EHS-sarcoma, Life Technologies) (mouse) (UniProt P19137); assay: adherence assay; 46°C-grown MC02152 cells on LN-coated wells
[8] = molecular target: Collagen type IV (Sigma); assay: adherence assay; 37°C-grown MC02152 cells on CIV-coated wells
[9] = molecular target: Collagen type IV (Sigma); assay: adherence assay; MC02152 cells (46°C) on CIV-coated wells; no IgG
[10] = molecular target: Bovine serum albumin (bovine) (UniProt P02769); assay: adherence assay; MC02152 cells (46°C) on BSA-coated wells (negative control); no IgG
[11] = molecular target: Collagen type IV (Sigma); assay: adherence assay, 46°C-grown cells on CIV-coated wells
[12] = molecular target: Mouse laminin (isolated from the EHS-sarcoma, Life Technologies) (mouse) (UniProt P19137); assay: adherence assay; OG1RF cells (46°C) on LN-coated wells; no IgG
[13] = molecular target: Collagen type IV (Sigma); assay: adherence assay; OG1RF cells (46°C) on CIV-coated wells; no IgG
[14] = molecular target: Collagen type I (Sigma), immobilized; assay: adherence assay, 35S-labelled 46°C-grown OG1RF cells on CI-coated wells (3.3% is the ace mutant TX5256)
[15] = molecular target: Collagen type I (Sigma), immobilized; assay: adherence assay, 46°C-grown cells on CI-coated wells
[16] = molecular target: Collagen type I (Sigma), immobilized; assay: adherence assay; OG1RF cells (46°C) on CI-coated wells; no IgG
[17] = molecular target: Collagen type IV (Sigma); assay: adherence assay; OG1RF cells (46°C) on CIV-coated wells; no IgG; remark: listed apart in the source
[18] = molecular target: Bovine serum albumin (bovine) (UniProt P02769); assay: adherence assay; OG1RF cells (46°C) on BSA-coated wells (negative control); no IgG
[19] = molecular target: Bovine serum albumin (bovine) (UniProt P02769); assay: as above; remark: listed apart in the source
[20] = molecular target: Mouse laminin (isolated from the EHS-sarcoma, Life Technologies) (mouse) (UniProt P19137); assay: adherence assay; OG1RF cells (46°C) on LN-coated wells; no IgG; remark: listed apart in the source
[21] = molecular target: Collagen type I (Sigma), immobilized; assay: adherence assay; OG1RF cells (46°C) on CI-coated wells; no IgG; remark: listed apart in the source
[22] = molecular target: Mouse laminin (isolated from the EHS-sarcoma, Life Technologies) (mouse) (UniProt P19137); assay: adherence assay, 46°C-grown cells on LN-coated wells
[23] = molecular target: Bovine serum albumin (bovine) (UniProt P02769); assay: adherence assay; V583 cells (46°C) on BSA-coated wells (negative control); no IgG
[24] = molecular target: Mouse laminin (isolated from the EHS-sarcoma, Life Technologies) (mouse) (UniProt P19137); assay: adherence assay; V583 cells (46°C) on LN-coated wells; no IgG
[25] = molecular target: Collagen type I (Sigma), immobilized; assay: adherence assay; V583 cells (46°C) on CI-coated wells; no IgG
[26] = molecular target: Collagen type IV (Sigma); assay: adherence assay; V583 cells (46°C) on CIV-coated wells; no IgG
[27] = molecular target: Bovine Type I collagen (Collagen Corp.), immobilized on a CM5 sensor chip (bovine) (UniProt P02453); assay: SPR (BIAcore 1000), Scatchard analysis of equilibrium responses, 1-70 µM Ace A over immobilised collagen; three measurements
Sequence of UniProt P02453 (P02453 162-1217, chain 1 of 2): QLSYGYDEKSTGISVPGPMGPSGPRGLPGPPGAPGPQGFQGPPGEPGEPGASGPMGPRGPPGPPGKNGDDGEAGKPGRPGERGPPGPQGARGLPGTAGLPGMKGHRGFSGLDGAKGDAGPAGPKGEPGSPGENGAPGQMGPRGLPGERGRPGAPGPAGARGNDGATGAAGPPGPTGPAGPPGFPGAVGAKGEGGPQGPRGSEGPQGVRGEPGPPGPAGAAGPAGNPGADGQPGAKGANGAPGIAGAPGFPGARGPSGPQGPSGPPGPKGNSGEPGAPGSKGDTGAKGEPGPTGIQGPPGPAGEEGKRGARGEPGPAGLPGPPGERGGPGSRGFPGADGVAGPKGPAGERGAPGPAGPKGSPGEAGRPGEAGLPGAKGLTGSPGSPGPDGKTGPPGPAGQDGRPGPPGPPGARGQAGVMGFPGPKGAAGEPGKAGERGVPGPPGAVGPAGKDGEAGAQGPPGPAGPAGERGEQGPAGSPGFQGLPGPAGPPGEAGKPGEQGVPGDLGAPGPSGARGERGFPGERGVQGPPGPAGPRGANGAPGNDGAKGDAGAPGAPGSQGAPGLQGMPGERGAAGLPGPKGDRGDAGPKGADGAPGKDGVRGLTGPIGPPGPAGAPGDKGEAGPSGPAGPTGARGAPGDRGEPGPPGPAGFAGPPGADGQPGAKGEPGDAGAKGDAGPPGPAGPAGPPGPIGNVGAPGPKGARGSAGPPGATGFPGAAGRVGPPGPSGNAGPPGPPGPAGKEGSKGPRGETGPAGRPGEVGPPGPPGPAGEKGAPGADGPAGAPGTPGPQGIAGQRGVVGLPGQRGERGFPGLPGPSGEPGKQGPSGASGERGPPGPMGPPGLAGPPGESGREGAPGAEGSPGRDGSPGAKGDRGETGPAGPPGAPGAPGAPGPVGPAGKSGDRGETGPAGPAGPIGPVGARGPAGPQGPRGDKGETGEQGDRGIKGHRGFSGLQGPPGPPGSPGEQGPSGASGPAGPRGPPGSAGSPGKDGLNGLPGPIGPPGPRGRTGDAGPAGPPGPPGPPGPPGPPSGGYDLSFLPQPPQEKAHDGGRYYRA
Sequence of UniProt P02453 (P02465 80-1117, chain 2 of 2, further chain): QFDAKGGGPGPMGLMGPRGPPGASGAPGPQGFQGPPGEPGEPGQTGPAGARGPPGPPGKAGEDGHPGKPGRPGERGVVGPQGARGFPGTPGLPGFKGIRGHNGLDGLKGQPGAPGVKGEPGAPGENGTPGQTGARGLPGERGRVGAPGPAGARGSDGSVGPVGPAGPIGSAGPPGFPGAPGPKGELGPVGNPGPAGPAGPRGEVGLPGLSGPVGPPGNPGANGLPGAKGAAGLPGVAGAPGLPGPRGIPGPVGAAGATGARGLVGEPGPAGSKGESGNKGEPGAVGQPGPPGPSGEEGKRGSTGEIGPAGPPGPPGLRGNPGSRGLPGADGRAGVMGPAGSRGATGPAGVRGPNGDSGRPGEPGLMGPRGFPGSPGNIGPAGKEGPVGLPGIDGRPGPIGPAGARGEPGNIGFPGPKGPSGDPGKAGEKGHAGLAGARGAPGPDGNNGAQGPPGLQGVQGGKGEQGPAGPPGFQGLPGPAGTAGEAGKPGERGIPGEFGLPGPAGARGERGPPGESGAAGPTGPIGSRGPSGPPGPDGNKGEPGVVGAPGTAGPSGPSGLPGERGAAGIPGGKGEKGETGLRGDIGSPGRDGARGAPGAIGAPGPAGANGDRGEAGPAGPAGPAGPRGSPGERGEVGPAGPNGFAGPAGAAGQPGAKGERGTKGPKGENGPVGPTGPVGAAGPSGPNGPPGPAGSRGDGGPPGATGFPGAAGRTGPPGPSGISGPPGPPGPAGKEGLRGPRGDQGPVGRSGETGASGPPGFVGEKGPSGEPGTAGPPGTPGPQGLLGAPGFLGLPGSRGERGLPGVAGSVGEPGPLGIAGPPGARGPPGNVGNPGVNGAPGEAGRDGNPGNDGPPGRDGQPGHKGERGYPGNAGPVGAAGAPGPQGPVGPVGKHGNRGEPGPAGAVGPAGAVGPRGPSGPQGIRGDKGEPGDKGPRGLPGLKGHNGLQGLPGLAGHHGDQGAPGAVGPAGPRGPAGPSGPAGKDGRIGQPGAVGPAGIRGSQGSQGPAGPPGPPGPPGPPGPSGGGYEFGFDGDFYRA

Sequence of UniProt P02769 (P02769 25-607 limits assumed): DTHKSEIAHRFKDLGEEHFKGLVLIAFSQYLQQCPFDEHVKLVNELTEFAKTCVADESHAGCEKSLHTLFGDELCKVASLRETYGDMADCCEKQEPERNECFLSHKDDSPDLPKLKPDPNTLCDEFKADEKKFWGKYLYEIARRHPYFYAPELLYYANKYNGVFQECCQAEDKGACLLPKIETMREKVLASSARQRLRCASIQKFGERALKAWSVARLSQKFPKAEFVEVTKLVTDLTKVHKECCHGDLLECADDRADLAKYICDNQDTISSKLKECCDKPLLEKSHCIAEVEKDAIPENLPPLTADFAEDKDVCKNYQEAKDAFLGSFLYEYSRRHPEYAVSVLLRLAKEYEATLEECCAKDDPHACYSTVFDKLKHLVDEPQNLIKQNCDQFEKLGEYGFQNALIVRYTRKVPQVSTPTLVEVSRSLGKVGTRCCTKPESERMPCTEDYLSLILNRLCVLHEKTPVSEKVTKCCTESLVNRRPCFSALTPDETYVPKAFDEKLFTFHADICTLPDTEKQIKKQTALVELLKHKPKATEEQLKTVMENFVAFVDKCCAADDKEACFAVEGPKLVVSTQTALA

Substance: Ace protein of E. faecalis strain MC02152 (native; on cells or in mutanolysin extract)
- % of cells bound [1]: 7.1%
- % of cells bound [2]: 29%
- % of cells bound [3]: 26.7%
- % of cells bound [4]: 26%
- % of cells bound [5]: 38%
- % of cells bound [6]: 6%
- % of cells bound [7]: 41%
- % of cells bound [8]: 8.9%
- % of cells bound [9]: 27.7%
- % of cells bound [10]: 0.6%

Substance: Ace protein of E. faecalis strain OG1RF (native; on 46°C-grown cells or in mutanolysin-PMSF extracts)
- fold decrease in adherence, ace mutant TX5256 against OG1RF [11]: 27.4 fold
- % of cells bound [12]: 32%
- % of cells bound [13]: 29.6%
- % of cells bound [14]: 21.1%
- fold decrease in percentage of binding, ace mutant TX5256 against OG1RF [15]: 6.5 fold
- % of cells bound [16]: 24.6%
- % of cells bound [17]: 27.7%
- % of cells bound [18]: 0.9%
- % of cells bound [19]: 0.6%
- % of cells bound [20]: 31.9%
- % of cells bound [21]: 25.6%
- fold decrease in adherence, ace mutant TX5256 against OG1RF [22]: 32.9 fold

Substance: Ace protein of E. faecalis strain V583 (native; on 46°C-grown cells or in mutanolysin extract)
- % of cells bound [23]: 0.7%
- % of cells bound [24]: 29.4%
- % of cells bound [25]: 29.2%
- % of cells bound [26]: 38.1%

Substance: Recombinant E. faecalis EF1 Ace A domain (N-terminal His6-tag fusion protein)
- Kd [27]: 48 µM
